US20080305212A1

Key:
Assay in all cases: cell-based or functional assay
[1] = molecular target: T1, Trypsin-like protease (TL1) from Fusarium oxysporum (Fusarium oxysporum) (UniProt P35049)
T1 sequence: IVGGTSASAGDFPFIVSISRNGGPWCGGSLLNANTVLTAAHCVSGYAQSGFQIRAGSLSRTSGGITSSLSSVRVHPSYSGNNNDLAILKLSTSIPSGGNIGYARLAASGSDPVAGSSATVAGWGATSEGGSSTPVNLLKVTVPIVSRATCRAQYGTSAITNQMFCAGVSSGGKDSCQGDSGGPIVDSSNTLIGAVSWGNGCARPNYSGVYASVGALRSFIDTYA

[2] = molecular target: T2, Trypsin-like protease (TL5) from Fusarium solani (Fusarium solani)
T2 sequence: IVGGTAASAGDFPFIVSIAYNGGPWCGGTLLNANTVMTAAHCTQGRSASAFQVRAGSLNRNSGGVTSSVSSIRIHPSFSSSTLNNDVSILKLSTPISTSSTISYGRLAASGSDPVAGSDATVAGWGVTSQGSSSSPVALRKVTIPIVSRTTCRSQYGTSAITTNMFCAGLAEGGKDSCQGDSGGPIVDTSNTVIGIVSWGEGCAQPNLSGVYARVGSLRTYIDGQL

[3] = molecular target: T3, Trypsin-like protease (TL6) from Fusarium cf. solani (Fusarium cf. solani)
T3 sequence: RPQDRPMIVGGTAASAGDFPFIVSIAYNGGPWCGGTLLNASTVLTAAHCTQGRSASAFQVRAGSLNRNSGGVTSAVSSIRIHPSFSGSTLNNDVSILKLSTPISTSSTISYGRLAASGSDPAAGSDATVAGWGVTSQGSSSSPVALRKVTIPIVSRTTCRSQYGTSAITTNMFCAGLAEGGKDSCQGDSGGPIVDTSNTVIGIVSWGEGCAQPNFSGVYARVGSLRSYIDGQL

[4] = molecular target: bovine trypsin (bovine) (UniProt P00760)
[5] = molecular target: porcine trypsin (porcine) (UniProt P00761)

B1: Bowman-Birk inhibitor (commercial preparation, Cat # T-9777, Sigma-Aldrich) (protein, UniProt P01055 40-110, looked up)
chain: DDESSKPCCDQCACTKSNPPQCRCSDMRLNSCHSACKSCICALSYPAQCFCVDITDFCYEPCKPSEDDKEN
Q: Which results are given for B1?
A: % residual activity at 0.00048 mg/ml Bowman-Birk inhibitor (% residual activity) [1]: 117; % residual activity at 0.00097 mg/ml Bowman-Birk inhibitor (% residual activity) [1]: 111; % residual activity at 0.00195 mg/ml Bowman-Birk inhibitor (% residual activity) [1]: 103; % residual activity at 0.0039 mg/ml Bowman-Birk inhibitor (% residual activity) [1]: 109; % residual activity at 0.0078 mg/ml Bowman-Birk inhibitor (% residual activity) [1]: 82; % residual activity at 0.0156 mg/ml Bowman-Birk inhibitor (% residual activity) [1]: 61; % residual activity at 0.0313 mg/ml Bowman-Birk inhibitor (% residual activity) [1]: 32; % residual activity at 0.0625 mg/ml Bowman-Birk inhibitor (% residual activity) [1]: 13; % residual activity at 0.125 mg/ml Bowman-Birk inhibitor (% residual activity) [1]: 5.8; % residual activity at 0.25 mg/ml Bowman-Birk inhibitor (% residual activity) [1]: 2.2; % residual activity at 0.5 mg/ml Bowman-Birk inhibitor (% residual activity) [1]: 0.8; % residual activity at 0.00048 mg/ml Bowman-Birk inhibitor (% residual activity) [2]: 78; % residual activity at 0.00097 mg/ml Bowman-Birk inhibitor (% residual activity) [2]: 71; % residual activity at 0.00195 mg/ml Bowman-Birk inhibitor (% residual activity) [2]: 57; % residual activity at 0.0039 mg/ml Bowman-Birk inhibitor (% residual activity) [2]: 55; % residual activity at 0.0078 mg/ml Bowman-Birk inhibitor (% residual activity) [2]: 43; % residual activity at 0.0156 mg/ml Bowman-Birk inhibitor (% residual activity) [2]: 29; % residual activity at 0.0313 mg/ml Bowman-Birk inhibitor (% residual activity) [2]: 19; % residual activity at 0.0625 mg/ml Bowman-Birk inhibitor (% residual activity) [2]: 7.2; % residual activity at 0.125 mg/ml Bowman-Birk inhibitor (% residual activity) [2]: 3.1; % residual activity at 0.25 mg/ml Bowman-Birk inhibitor (% residual activity) [2]: 1.2; % residual activity at 0.5 mg/ml Bowman-Birk inhibitor (% residual activity) [2]: 0.5; % residual activity at 0.00048 mg/ml Bowman-Birk inhibitor (% residual activity) [3]: 104; % residual activity at 0.00097 mg/ml Bowman-Birk inhibitor (% residual activity) [3]: 107; % residual activity at 0.00195 mg/ml Bowman-Birk inhibitor (% residual activity) [3]: 94; % residual activity at 0.0039 mg/ml Bowman-Birk inhibitor (% residual activity) [3]: 97; % residual activity at 0.0078 mg/ml Bowman-Birk inhibitor (% residual activity) [3]: 84; % residual activity at 0.0156 mg/ml Bowman-Birk inhibitor (% residual activity) [3]: 66; % residual activity at 0.0313 mg/ml Bowman-Birk inhibitor (% residual activity) [3]: 55; % residual activity at 0.0625 mg/ml Bowman-Birk inhibitor (% residual activity) [3]: 26; % residual activity at 0.125 mg/ml Bowman-Birk inhibitor (% residual activity) [3]: 9.5; % residual activity at 0.25 mg/ml Bowman-Birk inhibitor (% residual activity) [3]: 2.9; % residual activity at 0.5 mg/ml Bowman-Birk inhibitor (% residual activity) [3]: 1.3; % residual activity at 0.00048 mg/ml Bowman-Birk inhibitor (% residual activity) [4]: 0.9; % residual activity at 0.00097 mg/ml Bowman-Birk inhibitor (% residual activity) [4]: 5.3; % residual activity at 0.00195 mg/ml Bowman-Birk inhibitor (% residual activity) [4]: 0.1; % residual activity at 0.0039 mg/ml Bowman-Birk inhibitor (% residual activity) [4]: -0.4; % residual activity at 0.0078 mg/ml Bowman-Birk inhibitor (% residual activity) [4]: 0; % residual activity at 0.0156 mg/ml Bowman-Birk inhibitor (% residual activity) [4]: -1.5; % residual activity at 0.0313 mg/ml Bowman-Birk inhibitor (% residual activity) [4]: 0.1; % residual activity at 0.0625 mg/ml Bowman-Birk inhibitor (% residual activity) [4]: 0; % residual activity at 0.125 mg/ml Bowman-Birk inhibitor (% residual activity) [4]: 0; % residual activity at 0.25 mg/ml Bowman-Birk inhibitor (% residual activity) [4]: 0; % residual activity at 0.5 mg/ml Bowman-Birk inhibitor (% residual activity) [4]: 0; % residual activity at 0.00048 mg/ml Bowman-Birk inhibitor (% residual activity) [5]: 11; % residual activity at 0.00097 mg/ml Bowman-Birk inhibitor (% residual activity) [5]: 9.4; % residual activity at 0.00195 mg/ml Bowman-Birk inhibitor (% residual activity) [5]: 8.3; % residual activity at 0.0039 mg/ml Bowman-Birk inhibitor (% residual activity) [5]: 6.2; % residual activity at 0.0078 mg/ml Bowman-Birk inhibitor (% residual activity) [5]: 3.2; % residual activity at 0.0156 mg/ml Bowman-Birk inhibitor (% residual activity) [5]: 2.2; % residual activity at 0.0313 mg/ml Bowman-Birk inhibitor (% residual activity) [5]: 1; % residual activity at 0.0625 mg/ml Bowman-Birk inhibitor (% residual activity) [5]: 0.4; % residual activity at 0.125 mg/ml Bowman-Birk inhibitor (% residual activity) [5]: 0.2; % residual activity at 0.25 mg/ml Bowman-Birk inhibitor (% residual activity) [5]: 0.1; % residual activity at 0.5 mg/ml Bowman-Birk inhibitor (% residual activity) [5]: 0.1
